Test results taken from article PMC7831708.

Target: recombinant human PD-1 (human) (UniProt Q15116)
Assay: ELISA

Chain of UniProt Q15116 (Q15116 25-170): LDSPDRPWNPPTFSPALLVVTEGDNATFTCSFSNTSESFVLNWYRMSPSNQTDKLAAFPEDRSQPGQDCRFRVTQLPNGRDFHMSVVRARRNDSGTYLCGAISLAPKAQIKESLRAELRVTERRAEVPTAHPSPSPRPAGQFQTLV

EC50: 2.88 nM
Substance: Recombinant cynomolgus monkey PD-L1.mFc (Fc fusion)
